Patent US20130035289A1, “PHARMACEUTICAL COMPOSITION FOR TREATMENT OF THROMBOSIS-RELATED DISEASES COMPRISING A FRAGMENT OF PROLACTIN (PRL)-GROWTH HORMONE (GH)-PLACENTAL LACTOGEN (PL)-FAMILY PROTEIN” (UNIVERSITE DE LIEGE, priority 2010, published 2013)

Molecular target: T1, PAI-1 (Homo sapiens, UniProt P05121)
T1 construct: gift of Pr; P. Declerck
Experiment: Inhibition of PAI-1 anti-proteolytic activity, uPA/plasminogen chromogenic (colorimetric) assay
Format: biochemical
Conditions: uPA, bovine plasminogen, PAI-1, absorbance 405 nm
Method: The main physiological function of PAI-1 is to inhibit uPA and tPA proteolytic activity. […] A chromogenic substrate for plasmin (Spectrozyme PL: 0.5 mM. American Diagnostica INC) in PBS was added to the mixture in 96-well microtitration plates and kept at room temperature. The release of free p-nitro-aniline from the chromogenic substrate was measured spectrophotometrically. The activity of plasmin was determined as the absorbance at 405 nm.

T1 sequence (P05121 24-402): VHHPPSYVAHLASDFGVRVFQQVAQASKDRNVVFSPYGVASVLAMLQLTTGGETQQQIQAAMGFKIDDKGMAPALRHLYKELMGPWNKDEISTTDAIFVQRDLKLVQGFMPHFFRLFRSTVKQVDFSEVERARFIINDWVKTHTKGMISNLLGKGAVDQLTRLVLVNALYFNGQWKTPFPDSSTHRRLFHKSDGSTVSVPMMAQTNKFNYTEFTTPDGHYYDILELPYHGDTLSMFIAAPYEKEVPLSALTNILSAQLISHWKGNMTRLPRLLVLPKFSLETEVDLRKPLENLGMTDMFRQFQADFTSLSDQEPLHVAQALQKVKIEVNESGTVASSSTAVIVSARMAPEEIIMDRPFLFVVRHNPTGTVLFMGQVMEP

B1: 23K PRL: the full fragment (full-length) prolactin (protein)
chain: LPICPGGAARCQVTLRDLFDRAVVLSHYIHNLSSEMFSEFDKRYTHGRGFITKAINSCHTSSLATPEDKEQAQQMNQKDFLSLIVSILRSWNEPLYHLVTEVRGMQEAPEAILSKAVEIEEQTKRLLEGMELIVSQVHPETKENEIYPVWSGLPSLQMADEESRLSAYYNLLHCLRRDSHKIDNYLKLLKCRIIHNNNC
inhibition of PAI-1 function to inhibit uPA and tPA proteolytic activity: did not show any inhibition
